Reference: publication PMC5567343, “Flow-induced elongation of von Willebrand factor precedes tension-dependent activation” (Nature Communications, 2017)

Assays:
Conditions in all cases: both partners purified
[1] = biological target: T1, Recombinant human von Willebrand factor concatemers, labeled with biotin and Alexa Fluor 488 (human, UniProt P04275 764-2813, biotin (~0.3 per monomer, from Sulfo-NHS-LC-Biotin); Alexa Fluor 488 (0.67 fluorophore/monomer)); assay: two-colour single-molecule TIRF imaging under flow; as a1 but 10 mM NaCl; VWF regions at average tension 52 ± 2.3 pN; apparent kon and koff, KD = koff/kon
T1 construct: Disulfide-linked concatemers of varying length; held on the flow-chamber wall through biotin and Traptavidin; also called VWF; VWF concatemer; source: Chinese hamster ovary cells, furin-treated, purified to >99% (Baxter BioScience); labeled, Sepharose CL-2B gel filtration, fraction 1; copies: ~20-200

[2] = biological target: T1, Recombinant human von Willebrand factor …; assay: two-colour single-molecule TIRF imaging under flow; as a1; 150 mM NaCl; VWF regions at average tension 36 ± 2.3 pN; apparent kon and koff, KD = koff/kon
[3] = biological target: T1, Recombinant human von Willebrand factor …; assay: two-colour single-molecule TIRF imaging under flow; as a1; 150 mM NaCl; VWF regions at average tension 20 ± 2.3 pN; apparent kon and koff, KD = koff/kon
[4] = biological target: T1, Recombinant human von Willebrand factor …; assay: two-colour single-molecule TIRF imaging under flow; dissociation of GPIbα after flow cessation from 1280 to 0 dyn cm^-2, 57 fps, 20 concatemers, three flow cycles each; 100 nM GPIbα, 150 mM NaCl
[5] = biological target: T1, Recombinant human von Willebrand factor …; assay: two-colour single-molecule TIRF imaging under flow; as a1 but 10 mM NaCl; VWF regions at average tension 28 ± 2.3 pN; apparent kon and koff, KD = koff/kon
[6] = biological target: T1, Recombinant human von Willebrand factor …; assay: two-colour single-molecule TIRF imaging under flow; as a1; 150 mM NaCl; VWF regions at average tension 52 ± 2.3 pN; apparent kon and koff, KD = koff/kon
[7] = biological target: T1, Recombinant human von Willebrand factor …; assay: two-colour single-molecule TIRF imaging under flow; as a1 but 10 mM NaCl; VWF regions at average tension 12 ± 2.2 pN; apparent kon and koff, KD = koff/kon
[8] = biological target: T1, Recombinant human von Willebrand factor …; assay: two-colour single-molecule TIRF imaging under flow; as a1 but 10 mM NaCl; VWF regions at average tension 20 ± 2.3 pN; apparent kon and koff, KD = koff/kon
[9] = biological target: T1, Recombinant human von Willebrand factor …; assay: two-colour single-molecule TIRF imaging under flow; as a1 but 10 mM NaCl; VWF regions at average tension 44 ± 2.3 pN; apparent kon and koff, KD = koff/kon
[10] = biological target: T1, Recombinant human von Willebrand factor …; assay: two-colour single-molecule TIRF imaging under flow; biotin/Alexa 488-VWF tethered to Traptavidin on the chamber wall, Alexa 647-GPIbα in solution at five concentrations; association kinetics after shift from 0 to 1280 dyn cm^-2; 150 mM NaCl, 20 mM HEPES pH 7.4, 0.02% Tween 20; VWF regions at average tension 12 ± 2.2 pN; apparent kon and koff, 1:1 fit, KD = koff/kon
[11] = biological target: T1, Recombinant human von Willebrand factor …; assay: two-colour single-molecule TIRF imaging under flow; as a1; 150 mM NaCl; VWF regions at average tension 44 ± 2.3 pN; apparent kon and koff, KD = koff/kon
[12] = biological target: T1, Recombinant human von Willebrand factor …; assay: two-colour single-molecule TIRF imaging under flow; as a1; 150 mM NaCl; combined fit of the two highest force bins, tension 40-56 pN, where activation by force is maximal; apparent kon and koff, KD = koff/kon
[13] = biological target: T1, Recombinant human von Willebrand factor …; assay: two-colour single-molecule TIRF imaging under flow; as a1 but 10 mM NaCl; VWF regions at average tension 36 ± 2.3 pN; apparent kon and koff, KD = koff/kon
[14] = biological target: T1, Recombinant human von Willebrand factor …; assay: two-colour single-molecule TIRF imaging under flow; as a1; 150 mM NaCl; VWF regions at average tension 28 ± 2.3 pN; apparent kon and koff, KD = koff/kon
[15] = biological target: T1, Recombinant human von Willebrand factor …; assay: two-colour single-molecule TIRF imaging under flow; as a1 but 10 mM NaCl; combined fit of the two highest force bins, tension 40-56 pN; apparent kon and koff, KD = koff/kon

B1: Wild-type human platelet GPIbα (His1 to Arg290), Alexa Fluor 647-labeled (domain or fragment, UniProt P07359 17-306, looked up)
chain: HPICEVSKVASHLEVNCDKRNLTALPPDLPKDTTILHLSENLLYTFSLATLMPYTRLTQLNLDRCELTKLQVDGTLPVLGTLDLSHNQLQSLPLLGQTLPALTVLDVSFNRLTSLPLGALRGLGELQELYLKGNELKTLPPGLLTPTPKLEKLSLANNNLTELPAGLLNGLENLDTLLLQENSLYTIPKGFFGSHLLPFAFLHGNPWLCNCEILYFRRWLQDNAENVYVWKQGVDVKAMTSNVASVQCDNSDKFPVYKYPGKGCPTLGDEGDTDLYDYYPEEDTEGDKVR
modifications: Alexa Fluor 647 (NHS ester; fluorophore:GPIbα 1.01:1)
notes: platelet glycoprotein Ib alpha chain, human, wild type, His1 to Arg290; also called GPIα-Alexa Fluor 647; source: HEK293T, transiently transfected, culture supernatant, purified (Ni-NTA, Superdex 200 SEC)
A Kd [1] of 0.6 nM, a koff [1] of 0.3 s⁻¹ and a kon [1] of 5.38e+08 M⁻¹ s⁻¹ were found for B1 in this work. It also gave a Kd [2] of 68 nM, a koff [2] of 3.3 s⁻¹ and a kon [2] of 4.9e+07 M⁻¹ s⁻¹. It also gave a Kd [3] of 290 nM, a koff [3] of 3.8 s⁻¹ and a kon [3] of 1.3e+07 M⁻¹ s⁻¹. The koff [4] was no less than 23 s⁻¹, the Kd [5] was 1.1 nM and the koff [5] was 0.5 s⁻¹. It also gave a kon [5] of 4.65e+08 M⁻¹ s⁻¹, a Kd [6] of 71 nM and a koff [6] of 3.6 s⁻¹. For the same binder, the kon [6] was 5.1e+07 M⁻¹ s⁻¹, the Kd [7] was 5.3 nM and the koff [7] was 1.1 s⁻¹. The kon [7] was 2.13e+08 M⁻¹ s⁻¹, the Kd [8] was 4.1 nM and the koff [8] was 1.1 s⁻¹. For the same binder, the kon [8] was 2.61e+08 M⁻¹ s⁻¹, the Kd [9] was 0.6 nM and the koff [9] was 0.3 s⁻¹. It also gave a kon [9] of 5.38e+08 M⁻¹ s⁻¹, a Kd [10] of 18 µM and a koff [10] of 2.3 s⁻¹. The kon [10] was 100000 M⁻¹ s⁻¹, the Kd [11] was 85 nM and the koff [11] was 4.2 s⁻¹. It also gave a kon [11] of 4.9e+07 M⁻¹ s⁻¹, a Kd [12] of 78 nM and a koff [12] of 3.9 s⁻¹. The kon [12] was 5e+07 M⁻¹ s⁻¹, the Kd [13] was 0.8 nM and the koff [13] was 0.4 s⁻¹. For the same binder, the kon [13] was 5.08e+08 M⁻¹ s⁻¹, the Kd [14] was 102 nM and the koff [14] was 3.5 s⁻¹. It also gave a kon [14] of 3.5e+07 M⁻¹ s⁻¹, a Kd [15] of 0.6 nM and a koff [15] of 0.3 s⁻¹. For the same binder, the kon [15] was 5.38e+08 M⁻¹ s⁻¹.
